Measurements reported in paper PMC10658565, “Polymorphic nanobody crystals as long‐acting intravitreal therapy for wet age‐related macular degeneration” (Bioengineering & Translational Medicine, 2023).
Where a chain is given by its changes, count along the chain named. Numbers in names are those of the source.

B1: mNb‐WT (VHH)
VHH: DVQLVESGGGLVQPGGSLRLSCAASGRTFSSYSMGWFRQAPGKEREFVVAISKGGYKYDAVSLEGRFTISRDNAKNTVYLQINSLRPEDTAVYYCASSRAYGSSRLRLADTYEYWGQGTLVTVSS
notes: also in PDB 8IIU (crystal of the protein without label); The 6xHis-labelled form was used for the ELISA; crystals were grown from protein without label; also called model anti‐VEGF nanobody; model nanobody mNb‐WT
B2: Mutant 1 (K44A mutation) (VHH)
VHH: B1 VHH with K43A
notes: as the chain of m1 with K44A
B3: Mutant 2 (E45A mutation) (VHH)
VHH: B1 VHH with E44A
notes: as the chain of m1 with E45A; also in PDB 8IJZ (crystal of the protein without label)
B4: Mutant 3 (K44A/E45A mutation) (VHH)
VHH: B1 VHH with K43A, E44A
notes: as the chain of m1 with K44A and E45A
B5: Mutant 4 (Y95F mutation) (VHH)
VHH: B1 VHH with Y94F
notes: as the chain of m1 with Y95F
B6: Mutant 5 (Q118N mutation) (VHH)
VHH: B1 VHH with Q117N
notes: as the chain of m1 with Q118N
B7: Mutant 6 (S8A mutation) (VHH)
VHH: B1 VHH with S7A
notes: as the chain of m1 with S8A
B8: Mutant 7 (Q14N mutation) (VHH)
VHH: B1 VHH with Q13N
notes: as the chain of m1 with Q14N; also in PDB 8IJS (crystal of the protein without label)

Target: T1, recombinant VEGF‐A165 protein (Homo sapiens (assumed), UniProt P15692-4, strain)
T1 construct: also called vascular endothelial growth factor; source: bought: SinoBiological Co. Ltd. (Cat: HPLC‐11066‐HNAH)
T1 sequence (P15692 whole entry, looked up, change not shown): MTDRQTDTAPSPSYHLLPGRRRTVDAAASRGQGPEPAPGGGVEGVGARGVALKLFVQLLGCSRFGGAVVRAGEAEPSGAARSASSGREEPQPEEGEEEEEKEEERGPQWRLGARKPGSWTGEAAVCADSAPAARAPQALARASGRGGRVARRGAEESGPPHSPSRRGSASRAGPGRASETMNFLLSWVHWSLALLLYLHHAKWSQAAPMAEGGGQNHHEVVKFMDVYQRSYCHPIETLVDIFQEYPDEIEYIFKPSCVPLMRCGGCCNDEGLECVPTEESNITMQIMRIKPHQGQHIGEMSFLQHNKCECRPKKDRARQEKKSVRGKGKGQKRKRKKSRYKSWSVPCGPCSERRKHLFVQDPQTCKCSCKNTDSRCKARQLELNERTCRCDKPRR
Assay: ELISA; VEGF‐A165 coated on high adsorption plates overnight at 4°C; blocked with 5% skim milk; linear gradient of 6xHis-labelled nanobodies, 1 h at 37°C; detected with HRP‐conjugated 6xHis tag antibody, TMB, 450 nm
Settings: both partners purified

Binder | binding result
B1 | binds
B2 | binds
B3 | binds
B4 | binds
B5 | binds
B6 | binds
B7 | binds
B8 | binds
